Molecular target: brain derived alpha synuclein oligomers and fibrils (MSA and PD brain homogenates enriched for aggregated, … (UniProt P37840 1-140))
Assay: ELISA on MSA and PD brain homogenates enriched for aggregated, insoluble alpha synuclein (data not shown)

B1: GM37 variant 2 (antibody, human IgG1, kappa, V domains shown)
VH: EVQLLESGGGLVQTGGSLRLSCAASGFTFSSYAMTWVRQAPGKGLEWVSAIRSQGDRTDYADSVKGRFTISRDNSQNTLYLQMNSLRAEDTAVYYCAKNWAPFDSWGQGTLVTVSS
VL: not shown
notes: VH 31 and VL 8 are firmly tied to the antibody; It is a human IgG1 kappa; also called GM37v2; GM37var2
Work on B1 yielded an EC50 of 0.09 to 0.16 nM.

— patent US20260217806A1 (H LUNDBECK A S, published 2026)
